Assays:
[1] = target: His-tagged wild-type cytochrome bc1 complex from Paracoccus denitrificans (Paracoccus denitrificans) (UniProt P05417)
[2] = target: wild-type cytochrome bc1 complex from Paracoccus denitrificans (Paracoccus denitrificans) (UniProt P05417)

steady-state reduction of cytochrome c by bc1 complex with decylubiquinol, KM [1]: 3.4 µM | steady-state reduction of cytochrome c by bc1 complex with decylubiquinol, kCAT [1]: 328 s⁻¹ | steady-state reduction of cytochrome c by bc1 complex with decylubiquinol, KM [2]: 2.3 µM | steady-state reduction of cytochrome c by bc1 complex with decylubiquinol, kCAT [2]: 273 s⁻¹
Substance: horse heart cytochrome c (from UniProt P00004 1-105) (natural protein)
